± gives the uncertainty stated by the source.
Assay: self-splicing fitness, log relative to wild type (ln ratio); higher = more splicing; Tetrahymena group I intron in knt gene, E. coli kanamycin selection, DiMSum; sequences stand for … in CUCUCU…GGAGGGAAAAGUUAUCAGGCAUGCACCUGGUAGCUAGUCUUUAAACCAAUAGAUUGCAUCGGUUUAAAAGGCAAGACCGUCAAAUUGCGGGAAAGGGGUCAACAGCCGUUCAGUACCAAGUCUCAGGGGAAACUUUGAGAUGGCCUUGCAAAGGGUAUGGUAAUAAGCUGACGGACAUGGUCCUAACCACGCAGCCAAGUCCUAAGUCAACAGAUCUUCUGUUGAUAUGGAUGCAGUUCACAGACUAAAUGUCGGUCGGGGAAGAUGUAUUCUUCUCAUAAGAUAUAGUCGGACCUCUCCUUAAUGGGAGCUAGCGGAUGAAGUGAUGCAACACUGGAGCCGCUGGGAACUAAUUUGUAUGCGAAAGUAUAUUGAUUAGUUUUGGAGUACUCGUGGUCG
Outline: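 The eight P1ex-region nucleotides of an intron in the knt kanamycin-resistance gene on pET-22b(+) were all randomised and the library put into E. coli BL21(DE3). Six replicate transformations were grown overnight at 37°C or 30°C on LB agar with or without 25 μg/mL kanamycin, together with 100 μg/mL carbenicillin, 50 μM IPTG and 0.2% rhamnose. Colonies were pooled and amplicon-sequenced on an Illumina HiSeq 2500. Fitness from DiMSum is the error-weighted combination of wild-type-normalised replicate fold changes, kanamycin over none.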

Row | Sequence | self-splicing fitness (ln) (30 °C) | self-splicing fitness (ln) (37 °C)
1 | AUAUAGCAAUAUUACGAAAU | -1.01 ± 0.21 | -1.72 ± 0.28
2 | UAUGAGCAAUAUUACGUGCU | -3.7 ± 0.32 | -2.39 ± 0.34
3 | UACGAGCAAUAUUACGGUUU | -3.06 ± 0.17 | -2.32 ± 0.18
4 | CCCCAGCAAUAUUACGAGUG | -3.21 ± 0.12 | -2.92 ± 0.14
5 | CAGUAGCAAUAUUACGCGUG | -2.65 ± 0.18 | -1.86 ± 0.14
6 | AUAAAGCAAUAUUACGGGAC | -1.72 ± 0.1 | -2.4 ± 0.16
7 | GAGGAGCAAUAUUACGUUCU | -2.2 ± 0.2 | -2.4 ± 0.33
8 | CUCAAGCAAUAUUACGCCUA | -2.82 ± 0.27 | -2.16 ± 0.28
